The conditions of this series: Escherichia coli (strain K12), pH 7.8, 25 °C, Urea, phosphate 58 mM, transition: 3, whole UniProt chain shown.

Several values for one entry are separate records, joined by “and”; a condition that tells them apart may be missing. Equal values may be shown once.

The text below walks through data of FireProtDB (doi:10.1021/bi00213a031).

B1: Tryptophan synthase alpha chain wild type, P0A877 (protein)
chain: MERYESLFAQLKERKEGAFVPFVTLGDPGIEQSLKIIDTLIEAGADALELGIPFSDPLADGPTIQNATLRAFAAGVTPAQCFEMLALIRQKHPTIPIGLLMYANLVFNKGIDEFYAQCEKVGVDSVLVADVPVEESAPFRQAALRHNVAPIFICPPNADDDLLRQIASYGRGYTYLLSRAGVTGAENRAALPLNHLVAKLKEYNAAPPLQGFGISAPDQVKAAIDAGAAGAISGSAIVKIIEQHINEPEKMLAALKVFVQPMKAATRS
With B1, where the note is “Absorbance”, the denaturant m value was 2.8 kcal/mol/M and 1.3 kcal/mol/M; the “denaturant midpoint (higher = more stable)” value was 2.5 M and 3.9 M; the unfolding free energy is 6.8 kcal/mol and 5.1 kcal/mol. Further, under “CD”, the denaturant m value was 2.5 kcal/mol/M and 1.2 kcal/mol/M; the “denaturant midpoint (higher = more stable)” value was 2.5 M and 4 M; the unfolding free energy is 6.2 kcal/mol and 4.6 kcal/mol.
